According to US20250163404A1, “PHAGE DISPLAY-BASED CELL-PENETRATING PEPTIDE DISCOVERY PLATFORM AND METHODS OF MAKING AND USING THE SAME” (Eli Lilly and Company, priority 2022, published 2025):

How the values were obtained:
[1] = tested on: CHO cell lysosomal extracts (active cathepsins); assay: Phage infectivity after incubation with CHO cell lysosomal extract; type: biochemical, Chinese hamster
Procedure: (§1) Subcellular fractionation: cytosolic and endosomal extraction are prepared according to manufactures' protocols from ThermoFisher Scientific (Cat. No. 89842) and Invent Biotechnologies (Cat. No. #ED-028), respectively. The starting cell number is 5×10^6 cells for one cytosolic extraction, and 3×10^7 cells for one endosome extraction. Lysosomal isolation from different cell types are optimized based on an Abcam kit (Cat. No. ab234047) for homogenization step and increased isolation scale. The starting cell number for one lysosomal isolation is 2×10^8 cells.
(§2) Ten rounds of overnight phage culture described above are grown to evaluate substrate sequence retention for each phage clone. Sanger sequencing is performed after each round of phage culture to confirm the substrate insertion. Final phage clones with the substrate insertion are then evaluated for cathepsin accessibility by incubation with lysosomal extract from different mammalian cell lines.
The accessibility of the engineered GS2 linker of the 18 phage clones to active cathepsins (confirmed by fluorogenic cleaving assay) is assessed by incubating phage clones with CHO cell lysosomal extracts at 37° C. The assessment is repeated 4 times with independently isolated lysosome under acidic environment (about pH 5). […] (as shown in the representative graph in FIG. 2).
(§3) The accessibility of clone A1 and H4 to active cathepsins is further assessed in lysosomal extracts from CaCo2 and HEK293 cells in addition to CHO cells. […] (see, FIG. 3). CaCo2 lysosome: clone A1 (mean=79.83%, SEM=9.5%) vs. H4 (mean=34.63%, SEM=13.5%), p=0.22, n=3. HEK293 lysosome: clone A1 (mean=75.1%, SEM=9.7%) vs. H4 (mean=9.5%, SEM=1.6%), p=0.018, n=3. CHO lysosome: clone A1 (mean=95.58%, SEM=13.8%) vs. H4 (mean=2.738%, SEM=0.8%), p<0.0001, n=6.

[2] = tested on: HEK293 lysosome (lysosomal cathepsins); assay: Phage infectivity after incubation with HEK293 lysosomal extract; type: biochemical; settings: 30 min. incubation at 37° C., n=3
Procedure: as §1, §2
as §3, with “CHO lysosome: clone A1 (mean=95.58%, SEM=13.8%) vs. H4 (mean=2.738%, SEM=0.8%), p<0.0001, n=6.” left out

[3] = tested on: CaCo2 lysosome (lysosomal cathepsins); assay: Phage infectivity after incubation with CaCo2 lysosomal extract; type: biochemical; settings: 30 min. incubation at 37° C., n=3
Procedure: as §1, §2
as §3, with “CHO lysosome: clone A1 (mean=95.58%, SEM=13.8%) vs. H4 (mean=2.738%, SEM=0.8%), p<0.0001, n=6.” left out

B1: H4: engineered M13 IX104 phage clone with FLVIR cathepsin substrate copies in pIII GS2 linker (nucleic acid)
DNA: GCTGAAACTGTTGAAAGTTGTTTAGCAAAATCCCATACAGAAAATTCATTTACTAACGTCTGGAAAGACGACAAAACTTTAGATCGTTACGCTAACTATGAGGGCTGTCTGTGGAATGCTACAGGCGTTGTAGTTTGTACTGGTGACGAAACTCAGTGTTACGGTACATGGGTTCCTATTGGGCTTGCTATCCCTGAAAATGAGGGTGGTGGCTCTGAGGGTGGCGGTTCTGAGGGTGGCGGTTCTGAGGGTGGCGGTACTAAACCTCCTGAGTACGGTGATACACCTATTCCGGGCTATACTTATATCAACCCTCTCGACGGCACTTATCCGCCTGGTACTGAGCAAAACCCCGCTAATCCTAATCCTTCTCTTGAGGAGTCTCAGCCTCTTAATACTTTCATGTTTCAGAATAATAGGTTCCGAAATAGGCAGGGGGCATTAACTGTTTATACGGGCACTGTTACTCAAGGCACTGACCCCGTTAAAACTTATTACCAGTACACTCCTGTATCATCAAAAGCCATGTATGACGCTTACTGGAACGGTAAATTCAGAGACTGCGCTTTCCATTCTGGCTTTAATGAGGATTTATTTGTTTGTGAATATCAAGGCCAATCGTCTGACCTGCCTCAACCTCCTGTCAATGCTGGCGGCGGCTCTTTTTTAGTTATTAGAGGTGGTGGTTCTGGTGGCGGCTCTGAGGGTGGTGGCTCTGAGTTTTTAGTTATTAGAGGTGGCGGTTCTGAGGGTGGCGGCTCTGAGGGAGGCGGTTCCGGTGGTGGCTCTGGTTCCGGTGATTTTGATTATGAAAAGATGGCAAACGCTAATAAGGGGGCTATGACCGAAAATGCCGATGAAAACGCGCTACAGTCTGACGCTAAAGGCAAACTTGATTCTGTCGCTACTGATTACGGTGCTGCTATCGATGGTTTCATTGGTGACGTTTCCGGCCTTGCTAATGGTAATGGTGCTACTGGTGATTTTGCTGGCTCTAATTCCCAAATGGCTCAAGTCGGTGACGGTGATAATTCACCTTTAATGAATAATTTCCGTCAATATTTACCTTCCCTCCCTCAATCGGTTGAATGTCGCCCTTTTGTCTTTAGCGCTGGTAAACCATATGAATTTTCTATTGATTGTGACAAAATAAACTTATTCCGTGGTGTCTTTGCGTTTCTTTTATATGTTGCCACCTTTATGTATGTATTTTCTACGTTTGCTAACATACTGCGTAATAAGGAGTCT
- infectivity reduction ([1]; CHO lysosomal extract, 37° C., about pH 5): 9800
- infectivity (mean) ([1]; CHO lysosomal extract, 37° C., about pH 5, n=4): 2%
- infectivity (mean) ([1]; CHO lysosome, 30 min. incubation at 37° C., n=6): 2.738%
- infectivity (mean) [2]: 9.5%
- infectivity (mean) [3]: 34.63%
